Where two headings read alike, the source gives them in different places. Bridge positions count the residues as written; N and C are the ends. Square brackets hold non-standard residues; d marks the D form. Primed or numbered codes have the meaning given here. Triazole bridges read from a SMILES are 1,4-linked. Peptide text beside a SMILES is read from it. ξ: configuration not given here. Pra″ = alkyne-bearing residue joined to Azk by a CuAAC triazole staple; Azk = residue with azidated side chain, clicked to Pra; Pra′ = residue with alkynyl side chain, clicked to Azk; Lys(N3) = [N-]=[N+]=NCCCC[C@H](N)C(=O)O; 1Nal = N[C@@H](Cc1cccc2ccccc12)C(=O)O; Cha = N[C@@H](CC1CCCCC1)C(=O)O; Ile(3ξ) = CCC(C)[C@H](N)C(=O)O; S5 = C=CCCC[C@](C)(N)C(=O)O; Pra = C#CC[C@H](N)C(=O)O
Columns and labels:
human β2AR [1] = biological target: T1, human β2AR (Homo sapiens, UniProt P07550, N187E); assay: Radioligand binding assay (RLA) with human β2AR, 3H-dihydroalprenolol (DHA) as radioligand, isoproterenol (agonist) as cold competitor, in presence and absence of the peptidomimetic; set-up: key to Shift: ratio IC50 basal (no peptide) / IC50 with peptidomimetic
T1 construct: made in house; host or cells: Sf9 insect cells (Bac-to-Bac baculovirus); membrane extracts
Method: β2AR365N constructs were expressed in Sf9 insect cells, using the Bac-to-Bac® Baculovirus Expression System. The membrane extracts were prepared from cells that expressed β2AR. Subsequently, the cell pellet was resuspended in a buffer (1 ml buffer/2×1E7 cells) containing 75 mM Tris pH 7.4, 12.5 mM MgCl2, 1 mM EDTA, Leupeptin and PMSF as protease inhibitors. Afterwards the cells were vortexed and homogenized in ice using a small volume Ultraturrax (6×10 sec). The cells were then centrifuged for 15 min at 16000 rcf, in a pre-cooled centrifuge (4° C.) and resuspended in the previous buffer containing 10% sucrose. Finally, the membranes were again homogenized in ice with the small volume Ultraturrax (3×10 sec). The protein concentration in the membrane fragments was determined using a Pierce BCA Protein Assay Kit and the protein concentration was extrapolated from the Bovine Serum Albumine standard curve.
To perform the radioligand competition binding assays, 96-well plates were used. For the assays on β2AR, the membrane extracts as well as the peptides were prepared in a binding buffer (75 mM Tris pH 7.4, 12.5 mM MgCl2, 1 mM EDTA, 0.2% BSA). The ligand (isoproterenol) and radioligand ([^3H]-dihydroalprenolol) were dissolved in ligand buffer (75 mM Tris pH 7.4, 12.5 mM MgCl2, 1 mM EDTA, 0.2% BSA and 0.1% ascorbic acid), at 1 mM and 2 nM, respectively. A ten-fold dilution series of the ligand was prepared to obtain a dose response curve. For each reaction 100 μl membrane extract, 50 μl ligand, 50 μl peptide or binding buffer containing 1% DMSO and 50 μl of radioligand was added to the V-bottom storage plate, with a total volume of 250 μl per well. Afterwards, the plates were incubated at room temperature for 2 h on a plate shaker (150 rpm). The samples were harvested into filter plates and washed with ice cold washing buffer (75 mM Tris pH 7,4) using the 96-well harvester. The plates were dried for 1 h at 50° C. and then sealed to allow the addition of 30 μl scintillation liquid to each well. Finally, the top of each plate was sealed and the plates were placed in a Wallac MICROBETA® Trilux scintillation counter and incubated for 30 min in the dark.
After the Microbeta scintillation counter, the experimental data was further analyzed using Graphpad Prism 6.0. After normalization of the raw data, a nonlinear regression was used to fit the data in a one-site binding model, with the total binding set as 100% and the non-specific binding between 0 and 5%. The IC50 values, obtained from the competition curves, were used to determine the shift for each peptide, which is the ratio of IC50 of the agonist test compound on the basal conformation (e.g. IC50 β2AR with no peptidomimetic) versus the active conformation (e.g. IC50 β2AR+peptidomimetic) of the receptor. For certain peptide analogues, a biphasic binding curve was observed and therefore fitted by a two-site model (nonlinear regression), resulting in two IC50 values (IC50Hi and IC50Lo) and a FractionHi, the fraction of receptors in the active state.
Synthesised peptidomimetics were evaluated using a radioligand binding assay (RLA) with a human β2AR, using ^3H-dihydroalprenolol (DHA) as the radioligand and increasing concentrations of isoproterenol (agonist) as cold competitor. In particular, the pharmacological stabilization of the receptor in the active conformation was evaluated by performing the radioligand displacement assay (RLA) in the presence and absence of the peptidomimetics. This validated assay quantifies the pharmacological stabilization of the receptor in the active conformation by comparing the affinities of an agonist for the basal versus the active GPCR conformer (Pardon et al. (2018) Angewandte Chemie International Edition 57, 5292-5295). During the assay, the binding affinity of an orthosteric agonist for the receptor, in particular isoproterenol for human β2AR, in presence and absence of the allosteric peptidomimetic was determined. […]

human β2AR [2] = biological target: T2, human β2AR (human, UniProt P07550 2-365); assay: cell-based or functional assay
human β2AR [3] = biological target: T2, human β2AR; assay: cell-based or functional assay; remark: listed apart in the source
human β2AR [4] = biological target: T2, human β2AR; assay: cell-based or functional assay; remark: listed apart in the source
human β2AR [5] = biological target: T2, human β2AR; assay: cell-based or functional assay; remark: listed apart in the source
human β2AR [6] = biological target: T2, human β2AR; assay: cell-based or functional assay; remark: listed apart in the source
human β2AR [7] = biological target: T2, human β2AR; assay: cell-based or functional assay; remark: listed apart in the source
[8] = Table 18a overview, averaged values of IC50 shift
[9] = Table 6, ratio IC50 β2AR alone / IC50 β2AR + peptidomimetic
[10] = Table 1, ratio IC50 β2AR alone / IC50 β2AR + peptidomimetic
[11] = Table 18b overview, averaged values of IC50 shift

CCC(C)[C@@H]1NC(=O)[C@@H](NC(=O)[C@H](CC(=O)O)NC(=O)[C@H](CCCNC(=N)N)NC(=O)[C@H](CS)NC(=O)[C@H](CC(=O)O)NC(=O)[C@H](CC(N)=O)NC(=O)[C@H](Cc2ccccc2)NC(C)=O)Cc2cn(nn2)CCCC[C@@H](C(=O)N[C@@H](Cc2c[nH]cn2)C(=O)N[C@@H](CC(C)C)C(=O)N[C@@H](CCCNC(=N)N)C(=O)N[C@@H](CCC(N)=O)C(=O)N[C@@H](Cc2ccc(O)cc2)C(=O)N[C@@H](CCC(=O)O)C(=O)N[C@@H](CC(C)C)C(=O)N[C@@H](CC(C)C)C(=O)O)NC(=O)[C@H](CCCNC(=N)N)NC(=O)[C@H](CCC(N)=O)NC1=O (some centres unmarked) [compound 11, Ac-FNDCRD[PraIQRAzk]HLRQYELL-OH] (Ac-FNDCRD[Pra][Ile(3ξ)]QR[Lys(N3)]HLRQYELL-OH; triazole 7-11)
Shift (human β2AR [1]; Table 5, ratio IC50 β2AR alone / IC50 β2AR + peptidomimetic): 7
Shift (human β2AR [1]; [8]): 7

Ac-FN[S5CRDS5]IQRMHLRQYELL-OH [compound 26]
Shift (human β2AR [1]; [9]): 2
Shift (human β2AR [1]; [8]): 2

RDIIQRMHLRQYELL [compound 16, Ac-RDIIQRMHLRQYELL-OH]
Shift (human β2AR [1]; [10]): 1
Shift (human β2AR [1]; [11]): 1

QRMHLRQYELL [compound 21, Ac-QRMHLRQYELL-OH]
Shift (human β2AR [1]; [10]): 1
Shift (human β2AR [1]; [11]): 1

Ac-KKKFN[PraCRDAzk]IQRMHLRQ1-NaIELL-OH (Ac-KKKFN[Pra′]CRD[Azk]IQRMHLRQ[1Nal]ELL-OH; triazole 6-10) [compound 57]
Shift (human β2AR [1]; Table 18c overview, averaged values of IC50 shift): 49

CCC(C)[C@@H]1NC(=O)[C@@](C)(NC(=O)[C@H](CC(=O)O)NC(=O)[C@H](CCCNC(=N)N)NC(=O)[C@H](CS)NC(=O)[C@H](CC(=O)O)NC(=O)[C@H](CC(N)=O)NC(=O)[C@H](Cc2ccccc2)NC(C)=O)CCC/C=C\CCC[C@@](C)(C(=O)N[C@@H](Cc2c[nH]cn2)C(=O)N[C@@H](CC(C)C)C(=O)N[C@@H](CCCNC(=N)N)C(=O)N[C@@H](CCC(N)=O)C(=O)N[C@@H](Cc2ccc(O)cc2)C(=O)N[C@@H](CCC(=O)O)C(=O)N[C@@H](CC(C)C)C(=O)N[C@@H](CC(C)C)C(=O)O)NC(=O)[C@H](CCCNC(=N)N)NC(=O)[C@H](CCC(N)=O)NC1=O (some centres unmarked) [compound 8, Ac-FNDCRD[S5IQRS5]HLRQYELL-OH] (Ac-FNDCRD[S5][Ile(3ξ)]QR[S5]HLRQYELL-OH; staple (Z) 7-11)
Shift (human β2AR [1]; Table 4, ratio IC50 β2AR alone / IC50 β2AR + peptidomimetic): 2
Shift (human β2AR [1]; [8]): 3

Ac-FN[ECRDK]IQRMHLRQYELL-OH [compound 24]
Shift (human β2AR [1]; [9]): 7
Shift (human β2AR [1]; [8]): 7

Ac-RDIIQR[AzkHLRPra]YELL-OH (Ac-RDIIQR[Azk]HLR[Pra′]YELL-OH; triazole 7-11) [compound 19]
Shift (human β2AR [1]; [11]): 5

B1: compound 77 (peptide)
peptide: Ac-FNDCRDIIQRMHLRQYALL-OH
Shift (averaged) (human β2AR [2]): 5
IC50 (nM) of isoproterenol, [3H]-DHA RLA, peptidomimetic present (human β2AR [3]): 175 nM
Shift (human β2AR [3]): 5

B2: compound 68 (peptide)
peptide: Ac-FNDCRDIIQRMHLRQYEFL-OH
Shift (averaged) (human β2AR [2]): 35
Fraction HI (%) (human β2AR [4]): 62%
IC50 (nM) of isoproterenol, [3H]-DHA RLA, peptidomimetic present (human β2AR [4]): 54.6 nM
Shift (human β2AR [4]): 29

B3: compound 62 (peptide)
peptide: Ac-KKKFN[Pra″]CRD[Lys(N3)]IQRMHLRQYEFL-OH
modifications: triazole 6-10
Shift (averaged) (human β2AR [2]): 87
Fraction HI (%) (human β2AR [4]): 91%
IC50 (nM) of isoproterenol, [3H]-DHA RLA, peptidomimetic present (human β2AR [4]): 17.1 nM
Shift (human β2AR [4]): 93

B4: compound 69 (peptide)
peptide: Ac-FNDCRDIIQRMHLRQYEWL-OH
Shift (averaged) (human β2AR [2]): 27
Fraction HI (%) (human β2AR [4]): 51%
IC50 (nM) of isoproterenol, [3H]-DHA RLA, peptidomimetic present (human β2AR [4]): 28.9 nM
Shift (human β2AR [4]): 55

B5: compound 40 (peptide)
peptide: Ac-RFN[Pra′]CRD[Azk]IQRMHLRQYELL-OH
modifications: triazole 4-8
IC50 (nM) of isoproterenol, [3H]-DHA RLA, peptidomimetic present (human β2AR [5]): 31.3 nM
Shift (human β2AR [5]): 37
Shift (averaged) (human β2AR [2]): 37

B6: compound 74 (peptide)
peptide: Ac-KKFN[Pra]CRD[Lys(N3)]IQRMHLRQYE[Cha]L-OH
modifications: triazole 5-9
Fraction HI (%) (human β2AR [6]): 89%
IC50 (nM) of isoproterenol, [3H]-DHA RLA, peptidomimetic present (human β2AR [6]): 4.7 nM
Shift (human β2AR [6]): 350
Shift (averaged) (human β2AR [2]): 350

B7: compound 50 (peptide)
peptide: Ac-KFN[Pra′]CRD[Azk]IQRMHLRQYE[Cha]L-OH
modifications: triazole 4-8
Fraction HI (%) (human β2AR [6]): 86%
IC50 (nM) of isoproterenol, [3H]-DHA RLA, peptidomimetic present (human β2AR [6]): 2.6 nM
Shift (human β2AR [6]): 616
Shift (averaged) (human β2AR [2]): 373

B8: compound 78 (peptide)
peptide: Ac-FNDCRDIIQRMHLRQAELL-OH
Shift (averaged) (human β2AR [2]): 1
IC50 (nM) of isoproterenol, [3H]-DHA RLA, peptidomimetic present (human β2AR [3]): 616 nM
Shift (human β2AR [3]): 1

B9: compound 79 (peptide)
peptide: Ac-FNDCRDIIQRMHLRQYELA-OH
Shift (averaged) (human β2AR [2]): 1
IC50 (nM) of isoproterenol, [3H]-DHA RLA, peptidomimetic present (human β2AR [3]): 849 nM
Shift (human β2AR [3]): 1

B10: compound 76 (peptide)
peptide: Ac-FNDCRDIIQRMHLRQYEAL-OH
Shift (averaged) (human β2AR [2]): 1
IC50 (nM) of isoproterenol, [3H]-DHA RLA, peptidomimetic present (human β2AR [3]): 1070 nM
Shift (human β2AR [3]): 1

B11: compound 22 (peptide)
peptide: Ac-FN[Pra′]CRD[Azk]IQRMHLRQYELL-OH
Shift (averaged) (human β2AR [7]): 9

B12: compound 41 (peptide)
peptide: Ac-KFN[Pra′]CRD[Azk]IQRMHLRQYELL-OH
modifications: triazole 4-8
IC50 (nM) of isoproterenol, [3H]-DHA RLA, peptidomimetic present (human β2AR [5]): 26 nM
Shift (human β2AR [5]): 44
Shift (averaged) (human β2AR [2]): 51
